# Patent US20160067316A1, “Selective Sensitization of Cancer Cells to, and Selective Protection of Non-Cancer Cells from Genotoxic Therapies” (Board of Supervisors of Louisiana State University and …, priority 2014, published 2016)
# Key:
# histone H3 [1] = molecular target: histone H3
# MT1-MMP catalytic domain = molecular target: T1, MT1-MMP catalytic domain (Homo sapiens, UniProt P50281); experiment: In vitro cleavage by MT1-MMP catalytic domain (anti-His immunoblot); type: biochemical; details: for sensitivity to MT1-MMP cleavage: incubated with recombinant MT1-MMP catalytic enzyme
# T1 construct: reacted with the MT1-MMP catalytic domain (EMD Millipore) at 22° C; purchased Calbiochem / EMD Millipore
# Procedure: FIG. 3 depicts anti-His immunoblotting of TAT-TLK1B or TAT-MS-TLK1B, reacted with the MT1-MMP catalytic domain (EMD Millipore) at 22° C., as a function of time. 1.5 μg TAT-TLK1B, TAT-MS-TLK1B or TAT-TL-MS-K was reacted with 0.02 mU MT1-MMP, catalytic domain (Calbiochem) in reaction buffer containing 50 mM Tris pH 7.5, 150 mM NaCl, 5 mM CaCl2. The reactions were incubated at 22° C. for the indicated times (10, 20, 30, 60, or 120 minutes). […] Although MT1-MMP has a preference for the preferred cleavage site motif, that preference is neither strict nor absolute. Thus other proteins will be cleaved as well; what is important is the relative sensitivity of MS-containing proteins to MT1-MMP cleavage.
# histone H3 [2] = molecular target: histone H3 (Homo sapiens, UniProt P68431); experiment: Kinase activity by histone H3 Ser10 phosphorylation (immunoblot); type: biochemical; details: in vitro, kinase buffer at 30° C; data not shown
# Procedure: In the next attempt, the MS was inserted 5′ to the kinase domain of TLK1B. The recombinant TAT-TL-MS-K protein was produced, purified, and the activity of the protein was analyzed in vitro. […] Activity of the TAT-TL-MS-K was monitored indirectly by evaluation of histone H3 Seri 0 phosphorylation. Recombinant TAT-TLK1B or TAT-TL-MS-K was reacted with histone H3 at ratios of 1:10, 1:5, or 1:1 in a kinase buffer at 30° C. Reactions were loaded onto SDS-PAGE gels, and immunoblotted against anti-Ser10 H3 (Millipore). […] The functional, MMP-sensitive TAT-TL-MS-K will be used to confirm transduction in normal and cancer cells, and the ability of TAT-TL-MS-K to sensitize cancer cells such as head and neck cancer cells to radiation.
# [3] = tested on: HNSCC cells (cell line SCC40); experiment: Protein transduction into SCC40 cells (anti-hemagglutinin immunoblot); type: cell-based; details: 40 μg protein, 6 hours after protein transduction
# Procedure: HNSCC cells (cell line SCC40) were cultured on rat tail type I collagen plates in DMEM/0.1% BSA for 3 days before addition of 40 μg TAT-TLK1B or TAT-MS-TLK1B. Control cells (Untreated cells, Untx) were treated with an equal volume of OPTI-MEM™ reduced serum medium—a modification of Eagle's Minimum Essential Media, buffered with HEPES and sodium bicarbonate, and supplemented with hypoxanthine, thymidine, sodium pyruvate, L-glutamine, trace elements, and growth factors. FIG. 4A depicts the results of immunoblotting the respective cell lysates with anti-(MT1-MMP catalytic domain) antibody (Millipore). The arrow at 68 kD corresponds to pro-MT1-MMP. […] The 52 kD and 55 kD proteins were products of autocatalytic cleavage of MT1-MMP. […] Active MT1-MMP is membrane-bound, and is responsible for cleaving and activating pro-MMP-2 to active MMP-2. Active MT1-MMP can also undergo autocatalytic processing. The presence of a substrate such as TAT-MS-TLK1B or TAT-TL-MS-K will decrease the MT1-MMP autocatalysis. […] In other words, the observed decrease in MT1-MMP auto-cleavage is indirect evidence that the recombinant TAT-MS-fusion protein is being cleaved as designed.
# FIG. 4B depicts results of immunoblotting the respective cell lysates with horseradish peroxidase-conjugated anti-hemagglutinin (Sigma) 6 hours after protein transduction. […]
# rat salivary glands = details: delivered directly to rat salivary glands; preclinical, Sunavala-Dossabhoy 2012; cited from earlier work
molecule,measurement,setting,value
MT1-MMP expressed by HNSCC cell line SCC40,"MT1-MMP autoproteolytic products (52 kD and 55 kD) in SCC40 lysates, immunoblot",TAT-MS-TLK1B,The autoproteolytic products declined sharply in the presence of the TAT-MS-TLK1B
TAT-TL-MS-K fusion protein (protein) MHHHHHHSSGLVPRGSGMKETAAAKFERQHMDSPDLGTDDDDKAMAISDPNSSSVDKLGYGRKKRRQRRRGGSTMGGYPYDVPDYAGSMLKLAALESNKIQDLEKKEGRIDDLLRANCDLRRQIDEQQKLLEKYKERLNKCISMSKKLLIEKSTQEKLSSREKSMQDRLRLGHFTTVRHGASFTEQWTDGFAFQNLVKQQEWVNQQREDIERQRKLLAKRKPPTANNSQAPSTNSEPKQRKNKAVNGAENDPFVRPNLPQLLTLAEYHEQEEIFKLRLGHLKKEEAEIQAELERLERVRNLHIRELKRINNEDNSQFKAAAVPLSLRSGTSDHPTLNERYLLLHLLGRGGFSEVYKAFDLYEQRYAAVKIHQLNKSWRDEKKENYHKHACREYRIHKELDHPRIVKLYDYFSLDTDTFCTVLEYCEGNDLDFYLKQHKLMSEKEARSIVMQIVNALRYLNEIKPPIIHYDLKPGNILLVDGTACGEIKITDFGLSKIMDDDSYGVDGMDLTSQGAGTYWYLPPECFVVGKEPPKISNKVDVWSVGVIFFQCLYGRKPFGHNQSQQDILQENTILKATEVQFPVKPVVSSEAKAFIRRCLAYRKEDRFDVHQLANDPYLLPHMRRSNSSGNLHMAGLTASPTPPSSSIITY,"phosphorylation of histone H3 Ser10, immunoblot with anti-Ser10 H3",histone H3 [1],"TAT-TL-MS-K retained the native kinase activity, as indicated by phosphorylation of histone H3 (data not shown)"
"TAT-TL-MS-K: SEQ ID NO: 4, fusion protein with MT1-MMP cleavage site inserted 5′ to the kinase domain of TLK1B (protein, TAT-TL-MS-K fusion protein) MHHHHHHSSGLVPRGSGMKETAAAKFERQHMDSPDLGTDDDDKAMAISDPNSSSVDKLGYGRKKRRQRRRGGSTMGGYPYDVPDYAGSMLKLAALESNKIQDLEKKEGRIDDLLRANCDLRRQIDEQQKLLEKYKERLNKCISMSKKLLIEKSTQEKLSSREKSMQDRLRLGHFTTVRHGASFTEQWTDGFAFQNLVKQQEWVNQQREDIERQRKLLAKRKPPTANNSQAPSTNSEPKQRKNKAVNGAENDPFVRPNLPQLLTLAEYHEQEEIFKLRLGHLKKEEAEIQAELERLERVRNLHIRELKRINNEDNSQFKAAAVPLSLRSGTSDHPTLNERYLLLHLLGRGGFSEVYKAFDLYEQRYAAVKIHQLNKSWRDEKKENYHKHACREYRIHKELDHPRIVKLYDYFSLDTDTFCTVLEYCEGNDLDFYLKQHKLMSEKEARSIVMQIVNALRYLNEIKPPIIHYDLKPGNILLVDGTACGEIKITDFGLSKIMDDDSYGVDGMDLTSQGAGTYWYLPPECFVVGKEPPKISNKVDVWSVGVIFFQCLYGRKPFGHNQSQQDILQENTILKATEVQFPVKPVVSSEAKAFIRRCLAYRKEDRFDVHQLANDPYLLPHMRRSNSSGNLHMAGLTASPTPPSSSIITY",sensitivity to MT1-MMP cleavage,MT1-MMP catalytic domain,more sensitive to MT1-MMP cleavage than was TAT-TLK1B
same,kinase activity (phosphorylation of histone H3 Ser-10),histone H3 [2],retained the native kinase activity
"TAT-TLK1B: SEQ ID NO: 2, TAT-TLK1B fusion protein without the MS cleavage site (protein, TAT-TLK1B fusion protein) MHHHHHHSSGLVPRGSGMKETAAAKFERQHMDSPDLGTDDDDKAMAISDPNSSSVDKLGYGRKKRRQRRRGGSTMSGYPYDVPDYAGSMVKLAALESNKIQDLEKKEGRIDDLLRANCDLRRQIDEQQKLLEKYKERLNKCISMSKKLLIEKSTQEKLSSREKSMQDRLRLGHFTTVRHGASFTEQWTDGFAFQNLVKQQEWVNQQREDIERQRKLLAKRKPPTANNSQAPSTNSEPKQRKNKAVNGAENDPFVRPNLPQLLTLAEYHEQEEIFKLRLGHLKKEEAEIQAELERLERVRNLHIRELKRINNEDNSQFKDHPTLNERYLLLHLLGRGGFSEVYKAFDLYEQRYAAVKIHQLNKSWRDEKKENYHKHACREYRIHKELDHPRIVKLYDYFSLDTDTFCTVLEYCEGNDLDFYLKQHKLMSEKEARSIVMQIVNALRYLNEIKPPIIHYDLKPGNILLVDGTACGEIKITDFGLSKIMDDDSYGVDGMDLTSQGAGTYWYLPPECFVVGKEPPKISNKVDVWSVGVIFFQCLYGRKPFGHNQSQQDILQENTILKATEVQFPVKPVVSSEAKAFIRRCLAYRKEDRFDVHQLANDPYLLPHMRRSNSSGNLHMAGLTASPTPPSSSIITY",cleavage by MT1-MMP catalytic domain after 120 minutes,"MT1-MMP catalytic domain; 1.5 μg protein, 0.02 mU MT1-MMP, 22° C, 120 minutes",still showed substantial activity
same,sensitivity to MT1-MMP cleavage,MT1-MMP catalytic domain,"also cleaved by the enzyme, although not as rapidly"
same,transduction into SCC40 cancer cells,[3],efficiently transduced
same,radiation-induced xerostomia,rat salivary glands,mitigate radiation-induced xerostomia
TAT-TLK-MS fusion protein (protein) MHHHHHHSSGLVPRGSGMKETAAAKFERQHMDSPDLGTDDDDKAMAISDPNSSSVDKLGYGRKKRRQRRRGGSTMSGYPYDVPDYAGSMVKLAALESNKIQDLEKKEGRIDDLLRANCDLRRQIDEQQKLLEKYKERLNKCISMSKKLLIEKSTQEKLSSREKSMQDRLRLGHFTTVRHGASFTEQWTDGFAFQNLVKQQEWVNQQREDIERQRKLLAKRKPPTANNSQAPSTNSEPKQRKNKAVNGAENDPFVRPNLPQLLTLAEYHEQEEIFKLRLGHLKKEEAEIQAELERLERVRNLHIRELKRINNEDNSQFKDHPTLNERYLLLHLLGRGGFSEVYKAFDLYEQRYAAVKIHQLNKSWRDEKKENYHKHACREYRIHKELDHPRIVKLYDYFSLDTDTFCTVLEYCEGNDLDFYLKQHKLMSEKEARSIVMQIVNALRYLNEIKPPIIHYDLKPGNILLVDGTACGEIKITDFGLSKIMDDDSYGVDGMDLTSQGAGTYWYLPPECFVVGKEPPKISNKVDVWSVGVIFFQCLYGRKPFGHNQSQQDILQENTILKATEVQFPVKGSVPLSLRSGTPVVSSEAKAFIRRCLAYRKEDRFDVHQLANDPYLLPHMRRSNSSGNLHMAGLTASPTPPSSSIITY,phosphorylation of histone H3 Ser-10 (kinase activity),histone H3 [1],"would not phosphorylate the TLK substrate, histone H3 Ser-10"
"TAT-TLK-MS: SEQ ID NO: 3, fusion protein with MT1-MMP cleavage site in a presumptive loop towards the carboxy terminus (protein, TAT-TLK-MS fusion protein) MHHHHHHSSGLVPRGSGMKETAAAKFERQHMDSPDLGTDDDDKAMAISDPNSSSVDKLGYGRKKRRQRRRGGSTMSGYPYDVPDYAGSMVKLAALESNKIQDLEKKEGRIDDLLRANCDLRRQIDEQQKLLEKYKERLNKCISMSKKLLIEKSTQEKLSSREKSMQDRLRLGHFTTVRHGASFTEQWTDGFAFQNLVKQQEWVNQQREDIERQRKLLAKRKPPTANNSQAPSTNSEPKQRKNKAVNGAENDPFVRPNLPQLLTLAEYHEQEEIFKLRLGHLKKEEAEIQAELERLERVRNLHIRELKRINNEDNSQFKDHPTLNERYLLLHLLGRGGFSEVYKAFDLYEQRYAAVKIHQLNKSWRDEKKENYHKHACREYRIHKELDHPRIVKLYDYFSLDTDTFCTVLEYCEGNDLDFYLKQHKLMSEKEARSIVMQIVNALRYLNEIKPPIIHYDLKPGNILLVDGTACGEIKITDFGLSKIMDDDSYGVDGMDLTSQGAGTYWYLPPECFVVGKEPPKISNKVDVWSVGVIFFQCLYGRKPFGHNQSQQDILQENTILKATEVQFPVKGSVPLSLRSGTPVVSSEAKAFIRRCLAYRKEDRFDVHQLANDPYLLPHMRRSNSSGNLHMAGLTASPTPPSSSIITY",sensitivity to MT1-MMP cleavage,MT1-MMP catalytic domain,sensitive to cleavage
same,kinase activity (phosphorylation of histone H3 Ser-10),histone H3 [2],would not phosphorylate the TLK substrate
